Experiments:
[1] = molecular target: T1, PDGF-R β expressed on transfectant cells (CHO PDGF-R β transfectants, CHO C4 line); Sp2/0 PDGF-R β … (human, UniProt P09619); test: competition with 125I-labeled M4TS.11 on Sp2/0 PDGF-R β transfectant cells
Method: Figure 11: FIG. 11 is a graph depicting competitive binding of muM4TS.11 (closed squares) and HuM4TS.11 (open squares) and HuM4TS.11(gamma 1) (open diamonds). Increasing concentrations of cold competitor antibodies were incubated with the Sp2/0 transfectants expressing PDGF-R β in the presence of radiolabeled tracer muM4TS.11, and the ratio of bound/free radioactivity determined. The results shown are mean values of triplicate samples.
(§1) To assess the ability of HuM4TS.11 to compete with the muAb for receptor binding, increasing concentrations of the two antibodies were respectively incubated on ice for one hour with Sp2/0 PDGF-R β transfectant cells and a fixed amount of tracer ^125I-labeled M4TS.11. The sample tubes were processed as in the blocking experiment described. HuM4TS.11 competed less well than muM4TS.11 (FIG. 11).

[2] = molecular target: T1, PDGF-R β expressed on transfectant …; test: competition with 125I-labeled muM4TS.22 on Sp2/0 PDGF-R β transfectant cells
Method: Figure 5: FIG. 5 is a graph depicting competitive binding of muM4TS.22 (closed circles) and HuM4TS.22 (open circles). Increasing concentrations of cold competitor antibodies were incubated with the Sp2/0 transfectants expressing PDGF-R β in the presence of radiolabeled tracer muM4TS.22, and the ratio of bound/free radioactivity determined. The results shown are mean values of triplicate samples.
(§2) To assess the ability of HuM4TS.22 to compete with muM4TS.22 for receptor binding, increasing concentrations of the two antibodies were respectively incubated on ice for one hour with Sp2/0 PDGF-R β transfectant cells and a fixed amount of tracer ^125I-labeled muAb. The sample tubes were processed as in the blocking experiment just described. MuM4TS.22 and HuM4TS.22 competed with equal efficiencies (FIG. 5).

[3] = system: CHO transfectant cell line expressing PDGF-R β (CHO C4); test: Inhibition of PDGF BB-induced proliferation (3H-thymidine) of CHO C4 cells; format: cell-based, Chinese hamster
Method: To determine the ability of muM4TS.11 and muM4TS.22 to block PDGF-mediated proliferation, a CHO transfectant cell line expressing PDGF-R β (CHO C4) was generated, as described above. Proliferation of this line, as measured by incorporation of ^3 H-thymidine by DNA synthesis, is stimulated several-fold by PDGF BB. The CHO PDGF-R β transfectants were plated in a 96-well tissue culture plate at about 50,000 cells/well in Ham's F-12+10% FCS and incubated for 1-2 days. The medium was removed, and the cells were washed once with serum-free medium (Ham's F-12+1 mg/ml BSA) and incubated in this media for 1-2 days to put them in a quiescent state. The appropriate amount of antibody in serum-free medium was added, and after 1-3 hours, 50 ng/ml PDGF BB was added. After overnight incubation, 1 μCi ^3 H-thymidine was added, and after a final 4 hour incubation, the cells were harvested using a PHD cell harvester (Cambridge Technology) and analyzed with a scintillation counter.

[4] = system: PDGF-R β; test: Competition with 125I-labeled murine antibody tracer on Sp2/0 PDGF-R β transfectant cells; format: binding, human; details: Sp2/0 PDGF-R β transfectants
Method: as §2, with “^125 I-labeled” for “^125I-labeled”, “described.” for “described. MuM4TS.22 and HuM4TS.22 competed with equal efficiencies (FIG. 5).”
as §1, with “^125 I-labeled” for “^125I-labeled”, “[…] The binding affinities calculated from the data were: Ka =5×10^8 M^-1 for the muAb and 3×10^7 M^-1 for the HuAb.” for “HuM4TS.11 competed less well than muM4TS.11 (FIG. 11).”

Row | Molecule | Ka [2] | inhibition of PDGF-mediated proliferation compared with another antibody [3] | competition with labeled murine antibody for receptor binding / binding affinity, in words [4] | further results
1 | HuM4TS.11 (antibody, V domains shown) VH: QVQLVQSGAEVKKPGASVKVSCKASGYTFTNCWMHWVRQAPGQGLEWIGYINPTTGYSEYNQNFKDKATITADKSTSTAYMELSSLRSEDTAVYYCTSNYGHYDWFGNWGQGTLVT VL: DIQMTQSPSSLSASVGDRVTITCRASESVDSYGNSFMHWYQQKPGKAPKLLIYRASNLESGIPSRFSGSGSRTDFTLTISSLQPEDVATYYCQQSNEDPPTFGQGTKVEIK | – | – | – | Ka [1]: 3e+07 M⁻¹
2 | muM4TS.22 (antibody, V domains shown) VH: QVQLKESGPGLVAPSQSLSITCTVSGFSLTNYAINWVRQPPGQGLEWLGIIWTGGGTSYNSALKSRLSISKDNSKSQVFLKMNSLQTDDTARYYCARTGTRGYFFDYWGQGTTLTVSS VL: DIQMNQSPSSLSASLGDTITITCHASQNINVWLSWYQRKPGNIPKLLIYKASNLHTGVPSRFSGSGSGTGFTLTISSLQPEDIATYYCQQGQSFPFTFGSGTKLEIK | 2.6e+08 M⁻¹ | – | – | –
3 | HuM4TS.22 (antibody, V domains shown) VH: QVQLQESGPGLVKPSETLSLTCTVSGFSLTNYAINWVRQPPGKGLEWLGIIWTGGGTSYNSALKSRLTISKDTSKNQVSLKLSSVTAADTAVYYCARTGTRGYFFDYWGQGTLVTVSS VL: DIQMTQSPSSLSASVGDRVTITCHASQNINVWLSWYQQKPGKAPKLLIYKASNLHTGVPSRFSGSGSGTGFTLTISSLQPEDIATYYCQQGQSFPFTFGGGTKVEIK | 4e+08 M⁻¹ | – | – | –
4 | HuM4TS.11.2: HuM4TS.11 version in which a few additional human framework residues were changed to their murine counterparts (antibody, V domains shown) VL: DIVLTQSPSSLSASVGDRVTITCRASESVDSYGNSFMHWYQQKPGKAPKLLIYRASNLESGIPSRFSGGGSRTDFTLTISSLQPEDVATYYCQQSNEDPPTFGQGTKVEIK VH: QVQLVQSGAEVKKPGASVKVSCKASGYTFTNCWMHWVKQRPGQGLEWIGYINPTTGYSEYNQNFKDKATLTADKSTSTAYIELSSLRSEDTAVYYCTSNYGHYDWFGNWGQGTLVT | – | the same level of inhibition of PDGF-stimulated cell proliferation as does HuM4TS.11 | the same binding characteristics for PDGF-R β | –
5 | HuM4TS.11(gamma1): same variable domains as HuM4TS.11 but a gamma1 rather than gamma4 heavy chain constant region (antibody, V domains shown) VL: DIQMTQSPSSLSASVGDRVTITCRASESVDSYGNSFMHWYQQKPGKAPKLLIYRASNLESGIPSRFSGSGSRTDFTLTISSLQPEDVATYYCQQSNEDPPTFGQGTKVEIK VH: QVQLVQSGAEVKKPGASVKVSCKASGYTFTNCWMHWVRQAPGQGLEWIGYINPTTGYSEYNQNFKDKATITADKSTSTAYMELSSLRSEDTAVYYCTSNYGHYDWFGNWGQGTLVT | – | about equally well | higher binding affinity than HuM4TS.11 | binding affinity Ka ([4]; calculated from competitive binding data): 1.6e+08 M⁻¹

Reference: patent US5882644A, “Monoclonal antibodies specific for the platelet derived growth factor β receptor and methods of use thereof” (Protein Design Labs, Inc., priority 1996, dated 1999)
